Reference: the DeepSol protein solubility set

Assay: soluble on expression in E. coli; label from the status in PepcDB or PDB records

| Sequence | soluble on expression in E. coli |
| --- | --- |
| MLIQIDSNVLFANVDTLGNIVSTTTNGIGSAGKTTLDGHYSSISGFDQLGASHGAVIKGGIGSAMKTMQQLTEQVNWLKEALNSSRLAFSSQNNFVSRGMDIADEGGNVGGEEVVFPNRPDVVYEDFSFPQPVVQKASSIDELAAAFASTNDSEVEEAVATWKSLSEMATETSQDLRNVAAEVGEHNHGAVFDKAVERIGEIAANAESFAANASTMANHVGLMSQLKTMRMSDVLSAQQALSKIEDPMERKVLEEEFLSRLQSAIQSDVGQSVPVIRNLVTMRSTGGNSGQSIATGMETIAGNGKFSHTGLSSASGATLQPATMGQHPDNLGDFAAVNSRTGQSIDPFSLSTQQAGWTSPDFQPSAGGSSGLNPIKAPLTSAHSSMPASAQTVSTHPSSATGLGVTPIGPRADAMAMYPSANSKPHNSGLNGTSKIGGSSIAQLGASPQSGVSRSAAFGAAGTQSAHSARMSPMMGAPMGAAGSKKRGKTKSVTSSVEEDNNIAALLGESPAVVPGVIGSWVRG | not soluble |
| MATYRKSRAFAPEGFFECEGRGLEWLGAAHAQGGPRVVQVYGWGKDYLDIERVGSASPTPQAARAFGAALARMHDAGAKYFGSAPDGYNGTCYFGPLQDPVKMDTGEWTDPISYFADGRLRPMVNLGVKRGELDKRDVELTERVIEALPDLMGRAAADKPARIHGDLWSGNVMWTADSGQSEAVLIDPAAHGGHREEDLAMLHLFGMSYLSEITEGYQSVHPLKAGWQERITLWQLYPIAGHCVFFGGGYVNEYRSMCRSLLKLEHHHHHH | not soluble |
| MRFFSLIKLPVVLVLAGLLSACGFHLRGEYSVPEELHTMSFSSYDEYSKLTRYVRSQLQLNKVDLVQPSSSVPNLHLIKATMDERTLSLYQNSRAAEKELTYVVQYRVTIPGFGSKNFTTTVNRNYLDNPLTALAKSVERDVIEDEMRQQAAKQMMRQLGRIRAEYEAGQIAAPTEKTNSLEHHHHHH | not soluble |
| MSIEVRDCNGALLADGDNVSLIKDLKLKGSSTVLKRGTMIRGIRLTDSEDEIEGRTDKIKGLVLRTEFLKKAGS | soluble |
| AIAARPPPDPLYILRGSGASVNALHFCCDGDGPPLLYSGSGKGAVHVWNLSTRRAERVLESHAGNSVIWLNTFNNSRSCLISQGRDMRVCVWDLSEGRSAVTDSLHTGSVGFCQCSLLGSRLGSTLLAHPTQHMEEVSVVEMSSWTQVCSLKPDSNLGMLMSMKMWQADSGPVLCAGYEDGSVVLWDVSHRRPFSLLKVHPEPVMSLDVDVCRQKGISGSSENILQSWRLDNQQSLQMHDSIQMTNPGVSQLRIRADGKILASAGWDNNIRVFGWKKLKPLAVLQHHTDMVNSVAFSDHQDPTQRLLAAGSKDQRISVWSIYSES | soluble |
| MRKIWGILFLCLTFMLVGCGKEEKPQEAFDTYAKAWNKQKFAEMYDQLSEKAKKDISKKEFTEKYEKIYSGIEVKNLKVEAGEVKEDKKDEGPIPFKVSMDTVGGKINFGHEAKMVKEKDGDKESWKVDWTPDFIFPGMTKDSKVRMQTTEPKRGEIYDRNGKGLATNGKASEIGLIPEKLGDTAPQTKETVAKLLNMSVEEIDQKLAAKWVKPGYLVPIGILPEGATQNTYIDLPGVSTKPVNVRTYPLGEAAAHLTGYIGKVNAEDLKTLQKKGYQADDPVGKAGLEQVLEEKLRGKKGGRVFVEDAQGKEIKNLAKTDAVDGENVTLTIDSAVQEKTYNEMKGEAGSSAAINPKSGETLALVSSPAYDPNIIARGTSKAQREAWNNDPKKPMTNRFTQLSVPGSVFKPITAAIGLETKTIDPKEELKIEGLKWTKDSSWGNYYVTRVKDANPIDFDKAMKYSDNIYFAQEALKIGKDKFMSEAKKFGFDEKLPIEYGFPASKIANDGIKNDIQMADTGYGQGQVLMTPLHLALTYAPIVNDGNIPSPYIIKTDKQPKVWKENVISKGNQDILKTAMTKVINDPDGTGKIAKIDGMTLAGKTGTAELKVSKEAEGKELGWFAAFDLNSPDMVITMMIEDVKGRGGSNIPAEKVKHVFQK | not soluble |
| MRDALLGALDAGAVCVNVDLAHAGQQAKLEPDTPYGDALGVGAGRNWAHVNSIAYDAKDDSIILSSRHQGIVKIGRDKQVKWILAPSKGWNKQLASKLLKPVDDHGKPLTCDENGKCKDTDFDFTYTQHTAWLSSKGTLTVFDNGDGRGLEQPALPTMKYSRFVEYKIDEKKGTVQQVWEYGKERGYDFYSPITSVVEYQKDRDTMFGFGGSINLFDVGKPTVGKLNEIDYKTKEVKVEIDVLSDKPNQTHYRALLVHPTQMFKLEHHHHHH | soluble |
| MAHHHHHHMEIADRPLSEIIKEQKIDKELRRRHRGNQSGGNSDKKSVNRQGSSSQRQRNNNNNNTSGSRSRGSGNRSGGNKPESGRRRFRTDGGRRRGGNAVSAGSGSFGASRRRLADRADRRRRGALGGDNGNDGFGRGRDRDNNDRRGVKSAPRRRRISGAERNERNRNRDRRSALSRSRFDRDY | soluble |
| MGSDKIHHHHHHMSRPKVIVTIAPTGGMASKQQNPHLPTQPEEIASDVYDCYNAGASVVAVHARRPDDGATCDAAIYRDINTRIRAKCDIVINNSTGGGVHGEMIGQASNGYWEILWEERLKGMDAGAELCTLDATTIIATFGGKELLMHTSPERSKHLAVEMKKRGIKPEWEVFSPTHIVQDVAALTAAGFDEEPFFINLVLGVHRNFQNAMPYSPRVLQSMVDLLPKGSIFCVSGIGPAQLPSAMNSLLLGGHVRVGLEDNLYYSAGELATNVQLVERVVRLVREMGYEPATPREAREIMGLPRSSGPRPDFAMQ | not soluble |
| GPGSMTKAASLKKGSGDKRAREASLQEATARKVKVETAAMLPKASHDSQAHPNLFSWLLNTSRGEFFRKYFERKHLVASHGSGEYFASGLPGVVPPVNWSTERMLEHVKTHPSRYGADLDIVKFDPKLKRRVSYRTKGLVDAAELEACMKDGWSVRFLRPNEFIESNSAFIGCIEKEFNCYCGANSYWTPANSQGFAPHYDDVDVFFLQLEGEKLWCLYDPPEDVDVLARHSSEDYAPERFPTPKHTITLKAGDVLYMPRGTVHQGKTTLKTHSLHITFSANQMNSWADFMSRAAQYTVETLAANKLEWRRALPRDMPQVMGEVNNPVFRDTHGLPALSANQQDHRANLQTKVREMVAELTLLLTDEVNMDVCADVYGKDTIQKLQPPSRTYSGAAPASRKLSHASRVRLISRNCMRLLLNVPGEARVYHIGQNSTVCLAGELGELRFEADFAPAIATLLSSYPKTMPVSALPFPGFDNSDDVAENQLLLVETLRDAGLLHVGSSAKGNAPS | soluble |
| MFLKAGESKTVTIDLDERAFAYWSEKYNDWHVEAGEYAIEVGVSSRDIADTVAVALDGDGKTQPLTEWSTYGEWEADPFGAKIVAAVAAAGEAGELTKLPDNAMMRMFLNPMPINSLPTLLGEGGKKIAQFMVDEYAKLAK | not soluble |
| MNREEMTLLGFEIVAYAGDARSKLLEALKAAENGDFAKADSLVVEAGSCIAEAHSSQTGMLAREASGEELPYSVTMMHGQLHLMTTILLKDVIHHLIELYKRGAK | soluble |
| MSEDLMDLSPEEGIERFLRHREPSVRESTMRNAKTRLRFFNEWCEERDIENLNNLTGRDLADFVAWRRGDIAALTLQKQLSTIREALRYWADIEGVDDGLAEKVHAPELEHHHHHH | not soluble |
| MAHHHHHHMNGLRISTYFSAFKMRWMLENVPKVEEARKRGTLCFGTIDAWLLWKLSGGKVFVTDVTNASRTFLMDIRTCKWSPELCDKLGIPMACLPEIRSNSELLTYVLSDEGGLSAALRHPTPIMGSIADQQGALLGNMCFKEGESKNTYGTGCFLLMTVGEKIRFSSHGLLSTVAYQIGNKSPFIYALEGSIAGAGATIEWLKNNMKLIDDVSDCEKFAQTVSDTHGVVFVPAFSGFLAPSWDPSARGSIFGMTLKTTRAHVLRAALLAIALQVVDVLEAMEKDAEVKVQFLRVDGGLTKNHLLMKMQSDLLGINLHRPTMAETTALGAALCAGLAAGVWKSLEEVKTISQQANVWRVIRPAASKDSQQMLRAQWKRAKQQAKWAKL | not soluble |
| MTTVTVTTEVPSSGKTEDGHVFCDSSSAHIIEETEYVRQMRTTLEKIRNHMFKEKEGCGNARHKLDAEGSGNIQNGSDSTTDPTCLDLLMENMRRKDQQLLEMNRENEVLQIKLEASREAGAAALRNVAQRLFDNYQTQAGDLEKKHEGRKHLLQVNNLEKEQALKGSAESLNLLSEKLEEKHGQIVGLENRVQRMENNKELKTRVAHWTETPRTLVSKAVSTSELKTEGASPYLMLIRLRK | not soluble |
| MCKLAGPQHSEIGFPISTDNASWRGPNIEAGGKSAYNNVQVGE | not soluble |
